Literature values as cited in PMC3669279.
Like-named read-outs stand apart in the source and are kept apart here.

Columns and labels:
[1] = target: protective antigen (PA) (Bacillus anthracis) (UniProt P13423)
[2] = target: protective antigen (PA) (Bacillus anthracis) (UniProt P13423); remark: listed apart in the source

Substance	Kd [1] [nM]	Kd [2] [nM]
lethal factor (LF) (from UniProt P15917)	1	
edema factor (EF) (from UniProt P40136)		1
